Patent US20010010923A1, “MODIFIED CARBOXYPEPTIDASE” (priority 1997, published 2001)
Where a chain is given by its changes, count along the chain named. Names may count otherwise. “Also recorded” adds a separate entry of the source. Marks after values point to notes of the source that are not given here.

B1: M398E: carboxypeptidase Y S1' mutant, substitution M398E (protein, UniProt P00729 112-532, looked up, variant M398E)
Carboxypeptidase Y: KIKDPKILGIDPNVTQYTGYLDVEDEDKHFFFWTFESRNDPAKDPVILWLNGGPGCSSLTGLFFELGPSSIGPDLKPIGNPYSWNSNATVIFLDQPVNVGFSYSGSSGVSNTVAAGKDVYNFLELFFDQFPEYVNKGQDFHIAGESYAGHYIPVFASEILSHKDRNFNLTSVLIGNGLTDPLTQYNYYEPMACGEGGEPSVLPSEECSAMEDSLERCLGLIESCYDSQSVWSCVPATIYCNNAQLAPYQRTGRNVYDIRKDCEGGNLCYPTLQDIDDYLNQDYVKEAVGAEVDHYESCNFDINRNFLFAGDWMKPYHTAVTDLLNQDLPILVYAGDKDFICNWLGNKAWTDVLPWKYDEEFASQKVRNWTASITDEVAGEVKSYKHFTYLRVFNGGHEVPFDVPENALSMVNEWIHGGFSL
B2: M398F: carboxypeptidase Y S1' mutant, substitution M398F (protein, UniProt P00729 112-532, looked up, variant M398F)
Carboxypeptidase Y: B1 Carboxypeptidase Y with E398F
B3: M398Y: carboxypeptidase Y S1' mutant, substitution M398Y (protein, UniProt P00729 112-532, looked up, variant M398Y)
Carboxypeptidase Y: B1 Carboxypeptidase Y with E398Y
B4: M398C: carboxypeptidase Y S1' mutant, substitution M398C (protein, UniProt P00729 112-532, looked up, variant M398C)
Carboxypeptidase Y: B1 Carboxypeptidase Y with E398C
B5: T60A: carboxypeptidase Y S1' mutant, substitution T60A (protein, UniProt P00729 112-532, looked up, variant T60A)
Carboxypeptidase Y: B1 Carboxypeptidase Y with T60A, E398M
B6: T60L: carboxypeptidase Y S1' mutant, substitution T60L (protein, UniProt P00729 112-532, looked up, variant T60L)
Carboxypeptidase Y: B1 Carboxypeptidase Y with T60L, E398M
B7: N51Q + M398L: carboxypeptidase Y mutant N51Q + M398L (protein, UniProt P00729 112-532, looked up, variant N51Q M398L)
Carboxypeptidase Y: B1 Carboxypeptidase Y with N51Q, E398L
B8: T60W: carboxypeptidase Y S1' mutant, substitution T60W (protein, UniProt P00729 112-532, looked up, variant T60W)
Carboxypeptidase Y: B1 Carboxypeptidase Y with T60W, E398M
B9: T60F + M398F: carboxypeptidase Y double substitution mutant T60F + M398F (protein, UniProt P00729 112-532, looked up, variant T60F M398F)
Carboxypeptidase Y: B1 Carboxypeptidase Y with T60F, E398F
B10: T60M: carboxypeptidase Y S1' mutant, substitution T60M (protein, UniProt P00729 112-532, looked up, variant T60M)
Carboxypeptidase Y: B1 Carboxypeptidase Y with T60M, E398M
B11: M398N: carboxypeptidase Y S1' mutant, substitution M398N (protein, UniProt P00729 112-532, looked up, variant M398N)
Carboxypeptidase Y: B1 Carboxypeptidase Y with E398N
B12: T60V: carboxypeptidase Y S1' mutant, substitution T60V (protein, UniProt P00729 112-532, looked up, variant T60V)
Carboxypeptidase Y: B1 Carboxypeptidase Y with T60V, E398M

How the values were obtained:
Format in all cases: biochemical
[1] = Transpeptidation of FA-Ala-OBzl with H-Leu-NH2, Table 3; details: for fa / KN(app): FA-Ala-OBzl 0.2 mM, pH 7.5; for fa: H-Leu-NH2; for change in famax and KN(app), in words: compared with wild type, Table 3; for KN(app): nucleophile H-Leu-NH2 concentration at which fa is half of maximum
Description: (§1) Transamidation reactions were carried out generally as described in PCT Application WO 95/20039. In general, the method included dissolving the nucleophile (H-Leu-NH2, unless otherwise indicated) in 50 mM HEPES, 5 mM EDTA and adjusting the pH to 7.5, 5 μl of peptide substrate (8 mM Bz-G-A-R-A-R-A-OH, unless otherwise indicated, in methanol) was added to 190 μl nucleophile solution followed by 5 μl enzyme, resulting in a substrate concentration of 0.2 mM.
(§2) During the reaction, 20 μl aliquots were removed from the reaction mixture and added to 50 μl 1% trifluoroacetic acid to quench the reaction. The reactant composition was determined by HPLC using a Waters HPLC equipped with a C-18 Waters Novapac 4μ reverse phase column and various gradients of acetonitrile in 0.1% trifluoroacetic acid. The separation was monitored at 254 nm allowing the direct quantification of the products from the integrated peak areas. The composition of the reaction mixture was determined at least twvice during the reaction, the first when 20-50% (preferably 35%) of the substrate had been consumed in the reaction and the second time when 50-90% (preferably 80%) of the peptide substrate had been consumed.
(§3) The fraction of aminolysis (fa) was expressed as the ratio between the formed aminolysis product and the sum of all products formed. Unconsumed substrate was disregarded in the calculations.
Site specific mutagenesis was performed as described in Example 1 to produce the specific substitution mutants described below. Transamidation reactions were performed as described for Example 1.
In table 3, below, KN(app) represents the nucleophile concentration at which fa is half of the maximum value (a measure for the dissociation constant of the nucleophile). famax is the highest possible fa obtained at saturation of the enzyme with the nucleophile.
KN(app) indicates the concentration at which famax/2 is reached and thus describes the apparent binding constant of the nucleophile. Because the competing hydrolysis reaction is thought to occur while the leaving group remains attached to the to the acyl-enzyme intermediate, a low KN(app) is preferred.

[2] = Transpeptidation of FA-Ala-Xaa-OH with H-Gly-NH2, Table 2; details: for Fraction of aminolysis (fa), P1' Ala: FA-Ala-Ala-OH 0.2 mM; for Fraction of aminolysis (fa), P1' Ala / Fraction of aminolysis (fa), P1' Leu / Fraction of aminolysis (fa), P1' Met / Fraction of aminolysis (fa), P1' Phe / Fraction of aminolysis (fa), P1' Val: 1.9 M H-Gly-NH2, pH 7.5, room temperature; for Fraction of aminolysis (fa), P1' Leu: FA-Ala-Leu-OH 0.2 mM; for Fraction of aminolysis (fa), P1' Met: FA-Ala-Met-OH 0.2 mM; for Fraction of aminolysis (fa), P1' Phe: FA-Ala-Phe-OH 0.2 mM; for Fraction of aminolysis (fa), P1' Val: FA-Ala-Val-OH 0.2 mM; for fraction of aminolysis compared to wild type, in words: larger, hydrophobic leaving group such as leucine
Description: as §1, §2, §3
Site specific mutagenesis was performed as described for Example 1 to produce the S1 mutants used below.
Transamidation reactions were performed as described for Example 1.

[3] = Transpeptidation of Bz-G-A-R-A-R-X-OH at pH 7.5 at 50% substrate consumption, Table 4; set-up: key to fa: fraction: aminolysis product / sum of all products formed; details: for Pmax (peak product yield) / fa: 375 mM H-Leu-NH2; for fa / t: 50% substrate consumption; for t: 375 mM H-Leu-NH2, 2 mM substrate, [E] 0.1 mg/mL
Description: as §1, §2, §3
Site specific mutagenesis was performed as described for Example 1 to generate the specific mutants described below. Transamidation reactions were performed as described for Examples 1.

Molecule | fa [1] | change in famax and KN(app), in words [1] | KN(app) [1] | Fraction of aminolysis (fa), P1' Ala [2] | Fraction of aminolysis (fa), P1' Leu [2] | Fraction of aminolysis (fa), P1' Met [2] | Fraction of aminolysis (fa), P1' Phe [2] | Fraction of aminolysis (fa), P1' Val [2] | fraction of aminolysis compared to wild type, in words [2] | Pmax (peak product yield) ([3]; leaving group A) | fa ([3]; leaving group A) | t ([3]; leaving group A) [min] | Pmax (peak product yield) ([3]; leaving group L) | fa ([3]; leaving group L) | t ([3]; leaving group L) [min]
B1 | 0.97^a | increase in famax while decreasing KN(app) | 0.93^a mM | 0.92 | 0.84 | 0.74 | 0.71 | 0.82 | improvement in fraction of aminolysis obtained; also recorded: most dramatic improvement; also recorded: enhanced transpeptidation |  |  |  |  |  | 
B2 | 0.96^a | increase in both famax and KN(app) | 2.3^b mM | 0.87 | 0.85 | 0.86 | 0.85 | 0.83 | improvement in fraction of aminolysis obtained; also recorded: most dramatic improvement; also recorded: enhanced transpeptidation |  |  |  |  |  | 
B3 | 0.78^b |  | 5.2^c mM | 0.90 | 0.90 | 0.90 | 0.92 | 0.89 | improvement in fraction of aminolysis obtained; also recorded: most dramatic improvement; also recorded: enhanced transpeptidation |  |  |  |  |  | 
B4 | 0.95^a |  | 0.74^b mM | 0.93 | 0.75 | 0.65 | 0.64 | 0.52 | improvement in fraction of aminolysis obtained; also recorded: most dramatic improvement; also recorded: enhanced transpeptidation |  |  |  |  |  | 
B5 | 0.92^a |  |  | 0.91 | 0.32 | 0.16 | 0.12 | 0.44 | improvement in fraction of aminolysis obtained; also recorded: most effective at increasing the fraction of aminolysis |  |  |  |  |  | 
B6 | 1.0^b | increase in both famax and KN(app) |  | 0.91 | 0.13 | 0.08 | 0.24 | 0.17 |  |  |  |  |  |  | 
B7 |  |  |  |  |  |  |  |  |  | >0.07 | 0.18 | 3200 | >0.04 | 0.10 | 3500
B8 | 0.96^a | increase in both famax and KN(app) |  | 0.93 | 0.45 | 0.49 | 0.47 | 0.39 | improvement in fraction of aminolysis obtained; also recorded: most effective at increasing the fraction of aminolysis |  |  |  |  |  | 
B9 |  |  |  | 0.86 | 0.86 | 0.82 | 0.66 | 0.73 | further improved the fraction of aminolysis |  |  |  |  |  | 
B10 | 0.98^b | increase in both famax and KN(app) |  | 0.78 | 0.03 | 0.01 | 0.18 | 0.15 |  |  |  |  |  |  | 
B11 | 0.83^a |  | 1.2^c mM | 0.92 | 0.36 | 0.70 | 0.11 | 0.52 | improvement in fraction of aminolysis obtained; also recorded: enhanced transpeptidation |  |  |  |  |  | 
B12 | 0.97^a | increase in both famax and KN(app) |  | 0.94 | 0.15 | 0.17 | 0.08 | 0.29 |  |  |  |  |  |  | 
